Test results from US20210023121A1, “THROMBIN-RESPONSIVE HYDROGELS AND DEVICES FOR AUTO-ANTICOAGULANT REGULATION” (North Carolina State University, priority 2017, published 2021).

Biological target: T1, thrombin (Bos taurus, UniProt P00735)
T1 construct: purchased Sigma-Aldrich
Experiment: LC-MS analysis of peptide cleavage by thrombin
Assay type: biochemical
Conditions: 12 h incubation with 1 U mL^-1 thrombin in Tris buffer pH 7.4
Protocol: LC-MS analysis of peptide cleavage. Peptide with sequence GGLVPR|GSGGC (SEQ ID NO:1) was incubated with thrombin (1 U/mL) in Tris buffer (20 mM Tris, 150 mM NaCl, 2.5 mM KCl, pH 7.4) for 12 h.

**Q.** With “GGLVPRGSGGC [thrombin cleavable peptide, linker peptide cleaved by thrombin between Arg and Gly]” as the sequence, how does the “cleavage of the peptide by thrombin (LCMS)” value read?
**A.** efficiently cleaved
